From article PMC5524369
pKd: −log10 of the molar value. Values belong to the substance of their own block, whether it stands above or below them.

Legend:
[1] = molecular target: Tamm-Horsfall protein (human) (UniProt P07911); test: ELISA; wells coated with 25 μg/ml THP; CFH 10 to 250 μg/ml in 1% BSA/20 mM Tris/20 mM NaCl/0.05% Tween 20 (pH 7.5), overnight, 4°C; detected with goat anti-human CFH; fitted to B = (F × Cap)/(KD + F)
[2] = molecular target: Tamm-Horsfall protein (human) (UniProt P07911); test: as above; remark: listed apart in the source
[3] = molecular target: Tamm-Horsfall protein (human) (UniProt P07911); test: ELISA; wells coated with 25 μg/ml THP; C3b 1 to 250 μg/ml in 20 mM Tris/20 mM NaCl/0.05% Tween 20 (pH 7.5) without BSA, overnight, 4°C; detected with goat anti-human C3b; fitted to B = (F × Cap)/(KD + F)
C1q (Homo sapiens) = C1q (Homo sapiens) (UniProt P02745); settings: cited from earlier work
[4] = molecular target: complement factor H (Homo sapiens) (UniProt P08603); test: SPR; settings: cited from earlier work
Chain of complement factor H (Homo sapiens) (P08603 19-1231): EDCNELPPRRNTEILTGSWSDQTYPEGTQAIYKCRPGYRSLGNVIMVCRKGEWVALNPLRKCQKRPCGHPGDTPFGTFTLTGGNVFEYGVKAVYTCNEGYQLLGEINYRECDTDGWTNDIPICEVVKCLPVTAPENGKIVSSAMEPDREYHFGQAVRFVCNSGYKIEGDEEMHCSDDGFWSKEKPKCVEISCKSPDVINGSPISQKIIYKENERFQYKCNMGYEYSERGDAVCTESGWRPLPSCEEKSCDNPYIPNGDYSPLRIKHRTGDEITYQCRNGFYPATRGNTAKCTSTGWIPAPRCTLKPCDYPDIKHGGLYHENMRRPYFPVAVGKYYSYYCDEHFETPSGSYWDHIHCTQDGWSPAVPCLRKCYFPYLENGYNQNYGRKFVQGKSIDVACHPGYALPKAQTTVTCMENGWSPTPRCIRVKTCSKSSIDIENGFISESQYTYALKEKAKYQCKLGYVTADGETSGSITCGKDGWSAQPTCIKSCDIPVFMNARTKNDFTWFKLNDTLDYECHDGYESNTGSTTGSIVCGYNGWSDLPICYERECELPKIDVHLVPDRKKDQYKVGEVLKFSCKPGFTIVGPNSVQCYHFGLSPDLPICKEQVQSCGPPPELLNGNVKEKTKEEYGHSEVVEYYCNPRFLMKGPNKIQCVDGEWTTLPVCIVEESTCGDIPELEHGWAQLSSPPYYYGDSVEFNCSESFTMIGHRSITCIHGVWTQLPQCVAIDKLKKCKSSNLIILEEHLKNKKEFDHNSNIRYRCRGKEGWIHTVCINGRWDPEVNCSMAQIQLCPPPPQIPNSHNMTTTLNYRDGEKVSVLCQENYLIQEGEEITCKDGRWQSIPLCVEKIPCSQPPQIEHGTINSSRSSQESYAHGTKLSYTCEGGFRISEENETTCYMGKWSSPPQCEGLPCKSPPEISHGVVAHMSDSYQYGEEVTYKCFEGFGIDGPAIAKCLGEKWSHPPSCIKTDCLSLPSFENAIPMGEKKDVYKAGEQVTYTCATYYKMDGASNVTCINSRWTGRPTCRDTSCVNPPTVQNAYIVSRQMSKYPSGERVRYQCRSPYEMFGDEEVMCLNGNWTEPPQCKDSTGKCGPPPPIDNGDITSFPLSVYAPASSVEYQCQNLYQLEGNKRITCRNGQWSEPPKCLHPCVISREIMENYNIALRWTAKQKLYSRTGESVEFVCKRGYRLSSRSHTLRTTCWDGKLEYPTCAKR

Chain of complement factor H (P08603 19-1231): as above
Chain of C1q (Homo sapiens) (P02745 23-245, chain 1 of 3): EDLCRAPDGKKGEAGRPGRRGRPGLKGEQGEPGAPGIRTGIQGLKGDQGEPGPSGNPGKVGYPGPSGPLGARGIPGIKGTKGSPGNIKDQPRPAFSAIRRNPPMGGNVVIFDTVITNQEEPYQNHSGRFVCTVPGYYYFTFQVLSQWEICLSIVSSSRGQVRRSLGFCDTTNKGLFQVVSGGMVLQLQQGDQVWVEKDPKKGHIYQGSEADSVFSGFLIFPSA
Chain of C1q (Homo sapiens) (P02746 28-253, chain 2 of 3, further chain): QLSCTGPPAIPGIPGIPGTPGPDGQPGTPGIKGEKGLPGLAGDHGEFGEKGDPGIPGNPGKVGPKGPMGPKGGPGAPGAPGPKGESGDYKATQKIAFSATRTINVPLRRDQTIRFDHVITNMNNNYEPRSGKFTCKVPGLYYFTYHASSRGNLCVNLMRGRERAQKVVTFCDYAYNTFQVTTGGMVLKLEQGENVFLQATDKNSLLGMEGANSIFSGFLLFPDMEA
Chain of C1q (Homo sapiens) (P02747 29-245, chain 3 of 3, further chain): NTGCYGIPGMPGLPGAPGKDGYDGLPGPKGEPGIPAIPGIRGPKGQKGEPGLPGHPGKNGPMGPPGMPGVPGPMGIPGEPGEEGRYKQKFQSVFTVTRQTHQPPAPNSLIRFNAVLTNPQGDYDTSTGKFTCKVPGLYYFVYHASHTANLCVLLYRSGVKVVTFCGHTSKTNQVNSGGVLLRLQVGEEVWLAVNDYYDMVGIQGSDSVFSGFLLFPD

pKd [1]: 5.92
pKd [2]: 6.00
Substance: complement factor H (from UniProt P08603 19-1231) (natural protein)

pKd [3]: 7.30
Substance: complement 3b (from UniProt P01024 749-1663; P01024 749-1663) (natural protein)

Substance: THP (uromodulin) (from UniProt P07911)
pKd (C1q (Homo sapiens)): 9.00
pKd [4]: 5.40
